Measurements taken from the supplement of paper PMC10567573.

B1: INTS4 (parent)
chain: TIIEPAGESDNPLRFTSGLVVALD
B2: GLTSCR2 (parent)
chain: FQRRNMIEPRERAKFKRKYKVKLV

Variants of: B1
Assay: protein stability index of a GFP-peptide fusion (GPS, HEK-293T) (PSI 1-6); higher = more stable
Details: c terminus: a fixed tail appended
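Further: lentivirally expressed fusions sorted by FACS into six bins by GFP to DsRed ratio, PSI derived from sequencing read proportions per bin multiplied by bin number.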

Variant	protein stability index
TIEEPAGESDNPLRFTSGLVVALD [I3E]	4.4
TIIEPAIESDNPLRFTSGLVVALD [G7I]	2.84
TIIEPAHESDNPLRFTSGLVVALD [G7H]	2.73
TIIEPAAESDNPLRFTSGLVVALD [G7A]	3.83
TIIEPANESDNPLRFTSGLVVALD [G7N]	2.77
TIIEPACESDNPLRFTSGLVVALD [G7C]	2.56
TIIEPAKESDNPLRFTSGLVVALD [G7K]	2.94
TIIEPAPESDNPLRFTSGLVVALD [G7P]	3.04
TIIEPAEESDNPLRFTSGLVVALD [G7E]	3.82
TIIEPALESDNPLRFTSGLVVALD [G7L]	2.67
TIIEPAMESDNPLRFTSGLVVALD [G7M]	2.36
TIIEPAQESDNPLRFTSGLVVALD [G7Q]	3.33
TIIEPAFESDNPLRFTSGLVVALD [G7F]	2.78
TIIEPASESDNPLRFTSGLVVALD [G7S]	2.9
TIIEPARESDNPLRFTSGLVVALD [G7R]	3.54
TIIEPADESDNPLRFTSGLVVALD [G7D]	3.74
TIIEPRGESDNPLRFTSGLVVALD [A6R]	3.07
TIIEPSGESDNPLRFTSGLVVALD [A6S]	2.54

Variant	protein stability index
TIIEPCGESDNPLRFTSGLVVALD [A6C]	2.47
TIIEPFGESDNPLRFTSGLVVALD [A6F]	2.52
TIIEPDGESDNPLRFTSGLVVALD [A6D]	3.7
TIIEPTGESDNPLRFTSGLVVALD [A6T]	2.61
TIIEPNGESDNPLRFTSGLVVALD [A6N]	2.52
TIIEPLGESDNPLRFTSGLVVALD [A6L]	2.2
TIIEPMGESDNPLRFTSGLVVALD [A6M]	2.63
TIIEPWGESDNPLRFTSGLVVALD [A6W]	1.78
TIIEPQGESDNPLRFTSGLVVALD [A6Q]	2.72
TIIEPHGESDNPLRFTSGLVVALD [A6H]	2.75
TIIEPEGESDNPLRFTSGLVVALD [A6E]	3.74
TIIEPPGESDNPLRFTSGLVVALD [A6P]	2.99
TIIEPVGESDNPLRFTSGLVVALD [A6V]	2.62
TIIEPIGESDNPLRFTSGLVVALD [A6I]	2.73
TIIEPGGESDNPLRFTSGLVVALD [A6G]	2.94
TIIEPKGESDNPLRFTSGLVVALD [A6K]	2.98
TIIEPYGESDNPLRFTSGLVVALD [A6Y]	2.19

Variants of: B2
Assay: as above
Details: c terminus: a fixed tail appended

Variant	protein stability index
FQRRNMIEPRERAKFKRKYKHKLV [V21H]	2.79
FQRRNMIEPRERAKFKRKYKQKLV [V21Q]	2.81
FQRRNMIEPRERAKFKRKYKAKLV [V21A]	2.67
FQRRNMKEPRERAKFKRKYKVKLV [I7K]	2.1
FQRRNMIEPRERAKFKRKYKVKLF [V24F]	2.54
FQRRNMIWPRERAKFKRKYKVKLV [E8W]	1.91
FQRRNMIAPRERAKFKRKYKVKLV [E8A]	2.7
FQKRNMIEPRERAKFKRKYKVKLV [R3K]	2.6
FQNRNMIEPRERAKFKRKYKVKLV [R3N]	2.66
FQRVNMIEPRERAKFKRKYKVKLV [R4V]	3.02
FSRRNMIEPRERAKFKRKYKVKLV [Q2S]	2.43
FHRRNMIEPRERAKFKRKYKVKLV [Q2H]	2.21
FIRRNMIEPRERAKFKRKYKVKLV [Q2I]	2.08
FQRRNMIEPRDRAKFKRKYKVKLV [E11D]	2.53
FQRRNMIEPRSRAKFKRKYKVKLV [E11S]	2.2
FQRRNMIEPRRRAKFKRKYKVKLV [E11R]	2.23
FQRRNMIEPRERAKFKRKYRVKLV [K20R]	2.1
FQRRNMIEPRERAKFKRKYYVKLV [K20Y]	1.65
FQRRNMIEPRERAKFKRKYKVKTV [L23T]	2.25
FQRRNMIEPRERAKFKRKYKVKNV [L23N]	2.75

Variant	protein stability index
FQRRNMIEPRERAKFKRKYKVKSV [L23S]	2.61
FQRRNMIEPRERAKFKRKYKVKHV [L23H]	2.31
FQRRNGIEPRERAKFKRKYKVKLV [M6G]	2.57
FQRRNDIEPRERAKFKRKYKVKLV [M6D]	2.31
FQRRNCIEPRERAKFKRKYKVKLV [M6C]	1.74
FQRRNMIEPRERAKFKRKGKVKLV [Y19G]	2.66
FQRRNMIEPRERAKFKRKAKVKLV [Y19A]	2.46
FQRRNMIEPRERAKFKRKPKVKLV [Y19P]	2.74
FQRRNMIEPRERAKFKRKCKVKLV [Y19C]	2.65
FQRRNMIEPRERALFKRKYKVKLV [K14L]	1.82
FQRRNMIEPRERAWFKRKYKVKLV [K14W]	2.85
FQRRNMIEPRERGKFKRKYKVKLV [A13G]	2.08
FQRRNMIEPRERSKFKRKYKVKLV [A13S]	2.32
FQRRNMIEPRERPKFKRKYKVKLV [A13P]	2.02
FQRRAMIEPRERAKFKRKYKVKLV [N5A]	2.59
FQRRMMIEPRERAKFKRKYKVKLV [N5M]	2.5
FQRRVMIEPRERAKFKRKYKVKLV [N5V]	2.29
FQRRGMIEPRERAKFKRKYKVKLV [N5G]	2.57
FQRRDMIEPRERAKFKRKYKVKLV [N5D]	2.23
FQRRLMIEPRERAKFKRKYKVKLV [N5L]	2.83

Variant	protein stability index
FQRRNMIEPIERAKFKRKYKVKLV [R10I]	2.11
FQRRNMIEPRERAKQKRKYKVKLV [F15Q]	2.96
FQRRNMIEPRERAKYKRKYKVKLV [F15Y]	2.7
FQRRNMIEPRERAKWKRKYKVKLV [F15W]	2.12
LQRRNMIEPRERAKFKRKYKVKLV [F1L]	3.01
NQRRNMIEPRERAKFKRKYKVKLV [F1N]	2.59
FQRRNMIEPRERAKFKRQYKVKLV [K18Q]	2.51
FQRRNMIEPRERAKFKRGYKVKLV [K18G]	1.98
FQRRNMIEPRERAKFKREYKVKLV [K18E]	2.39
FQRRNMIEPRERAKFMRKYKVKLV [K16M]	2.07
FQRRNMIEPRERAKFKRKYKVPLV [K22P]	2.38
FQRRNMIEPRERAKFKRKYKVILV [K22I]	1.27
FQRRNMIEPRERAKFKRKYKVTLV [K22T]	1.89
FQRRNMIEPREQAKFKRKYKVKLV [R12Q]	2.43
FQRRNMIEPRENAKFKRKYKVKLV [R12N]	2.45
FQRRNMIEPREYAKFKRKYKVKLV [R12Y]	1.79
FQRRNMIEPREFAKFKRKYKVKLV [R12F]	1.47
FQRRNMIEKRERAKFKRKYKVKLV [P9K]	2.52
FQRRNMIEIRERAKFKRKYKVKLV [P9I]	2.4
